Assay results reported in WO2012019024A2 (dated 2012).

How the values were obtained:
[1] = biological target: T1, chL2-S2 chimeric human/murine HER-3 ECD Fc fusion (murine; human, UniProt Q61526 20-632); experiment: ELISA on chL2-S2 Fc
T1 construct: also called chL2-S2-Fc; chimeric ECD comprising murine L1-S1 domains and human L2-S2 domains; not shown: murine IgG2A hinge, CH2, and CH3 region (pmuFc2ANL vector)
T1 chain: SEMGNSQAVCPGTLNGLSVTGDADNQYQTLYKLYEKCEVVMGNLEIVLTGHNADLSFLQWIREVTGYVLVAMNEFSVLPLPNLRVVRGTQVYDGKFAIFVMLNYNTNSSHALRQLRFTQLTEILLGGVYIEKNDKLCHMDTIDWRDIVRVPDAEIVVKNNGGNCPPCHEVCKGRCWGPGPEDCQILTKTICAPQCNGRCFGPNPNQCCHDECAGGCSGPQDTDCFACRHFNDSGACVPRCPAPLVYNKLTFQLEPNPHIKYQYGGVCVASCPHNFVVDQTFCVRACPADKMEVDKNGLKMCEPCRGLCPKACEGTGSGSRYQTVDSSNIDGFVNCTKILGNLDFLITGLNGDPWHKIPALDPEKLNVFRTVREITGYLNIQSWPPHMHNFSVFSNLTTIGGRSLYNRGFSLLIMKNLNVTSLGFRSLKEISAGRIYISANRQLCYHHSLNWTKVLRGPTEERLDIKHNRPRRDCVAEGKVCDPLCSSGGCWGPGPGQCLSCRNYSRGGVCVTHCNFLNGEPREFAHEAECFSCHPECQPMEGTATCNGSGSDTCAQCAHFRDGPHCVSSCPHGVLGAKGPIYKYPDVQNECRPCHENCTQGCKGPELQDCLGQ

[2] = biological target: T2, chL1-S1 chimeric human/murine HER-3 ECD Fc fusion (human; murine, UniProt P21860 20-632); experiment: ELISA on chL1-S1 Fc (Figure 30)
T2 construct: also called chLl-Sl; chimeric ECD comprising human L1-S1 domains and murine L2-S2 domains; not shown: murine IgG2A hinge, CH2, and CH3 region (pmuFc2ANL vector)
T2 chain: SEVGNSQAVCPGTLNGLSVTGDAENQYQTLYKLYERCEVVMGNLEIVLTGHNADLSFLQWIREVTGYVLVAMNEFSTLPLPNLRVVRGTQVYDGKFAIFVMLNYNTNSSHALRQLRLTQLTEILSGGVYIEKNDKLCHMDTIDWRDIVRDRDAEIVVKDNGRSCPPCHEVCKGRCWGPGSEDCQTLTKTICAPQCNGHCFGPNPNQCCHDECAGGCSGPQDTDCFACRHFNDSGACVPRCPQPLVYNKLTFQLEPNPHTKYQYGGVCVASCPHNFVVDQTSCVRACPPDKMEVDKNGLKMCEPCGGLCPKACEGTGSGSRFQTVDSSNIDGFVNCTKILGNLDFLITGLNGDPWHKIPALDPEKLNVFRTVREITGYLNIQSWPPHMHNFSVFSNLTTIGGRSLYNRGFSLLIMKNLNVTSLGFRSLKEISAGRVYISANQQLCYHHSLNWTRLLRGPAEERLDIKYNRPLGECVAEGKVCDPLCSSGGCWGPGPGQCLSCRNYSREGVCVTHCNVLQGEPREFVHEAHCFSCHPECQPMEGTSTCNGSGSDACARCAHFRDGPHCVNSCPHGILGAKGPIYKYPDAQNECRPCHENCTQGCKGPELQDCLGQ

binding result [1]: no binding
binding result [2]: binds
B1: huHER3-10 antibody (antibody, V domains shown)
VH: QVQLVQSGPEVVKPGVSMKISCKASGYTFTDYTMNWVKQSPGQNLEWIGLINPYNDITAYNQKFQGKATLSVDKSSSTAYMELLSLTSEDSAVYYCARRGPRGAWFAYWGQGTLVTVSA
VL: DIVLTQSPASLAVSPGQRATISCRASTSVYNYGNSFMHWYQQMPGQPPKLLIYLASNLESGVPARFSGSGSRTDFTLTIDPVEANDAATYYCQQNSEDPWTFGQGTKLEIKR
notes: Recombinant humanized antibody with human constant regions; also called huHer-10; humanized (resurfaced) HER3-10
